The text below walks through data of US20170088605A1.

Bounds are passed on as bounds.

Assay [1] has as its target BKV serotype I infectious virus (VP1) (BK virus serotype I) (UniProt P03088).
Assay [2] deals with BKV serotype II chimeric infectious virus (VP1 of isolate SB) (BK virus serotype II).
The target of assay [3] is BKV serotype III chimeric infectious virus (VP1 of isolate AS) (BK virus serotype III).
The target of assay [4] is BKV serotype IV chimeric infectious virus (VP1 of strain ITA-4) (BK virus serotype IV).

BKV serotype I infectious virus (VP1) (BK virus serotype I), sequence (P03088 whole entry): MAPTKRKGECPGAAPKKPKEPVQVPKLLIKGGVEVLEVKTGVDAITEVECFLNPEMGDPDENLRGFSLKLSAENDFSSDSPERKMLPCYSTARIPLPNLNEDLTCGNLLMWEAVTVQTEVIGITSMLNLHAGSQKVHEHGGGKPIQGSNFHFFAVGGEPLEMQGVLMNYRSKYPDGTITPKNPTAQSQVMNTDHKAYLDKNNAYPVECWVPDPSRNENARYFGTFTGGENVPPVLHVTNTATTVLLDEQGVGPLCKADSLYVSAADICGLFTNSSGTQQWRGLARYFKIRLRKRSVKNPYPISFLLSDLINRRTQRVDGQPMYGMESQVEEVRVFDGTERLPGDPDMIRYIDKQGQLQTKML

B1: P46F4 (antibody, V domains shown)
VH: QVQLQESGPGLVKPSQTLSLTCTVSGGSISNGGYYWSWIRLHPGKGLEWIGCIHYSGGTYYNPSLKSRVTVSLDTSKNQFSLNLISVTAADTAIYFCARALIAAPGISDWFDPWGQGTLVTVSS
VL: QSVLTQPPSVSAAPGQKVTISCSGSNSNVGHNYVSWYQQLPGTAPKLLIYDNNKRPSGIPDRFSGSKSGTSATLGITGLQTGDEADYYCGTWDSSLSAGVFGGGTKVTVLG
Consider B1, for which the neutralization EC50 in assay [1] is 0.004 µg/mL; in assay [2] it was greater than 100 µg/mL; in assay [3] it was greater than 100 µg/mL; in assay [4] it was greater than 100 µg/mL. Besides, the neutralization EC90 in assay [1] is 0.29 µg/mL; in assay [2] it was greater than 100 µg/mL; in assay [3], greater than 100 µg/mL; in assay [4] it was greater than 100 µg/mL.
